# In article PMC2885054:
# Legend:
# [1] = molecular target: V5-tagged BUNV L protein expressed from a transfected cDNA construct (Bunyamwera virus) (UniProt P20470); experiment: co-IP; as a2, but with a viral transcript co-expressed: N from pT7riboBUNS (also full-length S antigenome RNA), or additionally pT7riboBUNM(+) or minigenome pT7riboBUNMREN(-); bands quantified by phosphorimager and normalised to expression
# [2] = molecular target: Bunyamwera virus (BUNV) nucleoprotein (N) (Bunyamwera virus) (UniProt P16495); experiment: as above
Substance,fold more co-precipitated than in cells transfected with pTM1-BUNS [1],fold more co-precipitated than in cells transfected with pTM1-BUNS [2]
Bunyamwera virus (BUNV) nucleoprotein (N) (from UniProt P16495 1-233) (natural protein),5 fold,
V5-tagged BUNV L protein expressed from a transfected cDNA construct (from UniProt P20470 1-2238),,8 fold
